From patent US20030087827A1

Target: proprotein convertase PC2
Assay: enzyme inhibition, pERTKR-MCA hydrolysis (fluorescence), competitive Ki

proprotein convertase PC2, sequence (P21661 109-637): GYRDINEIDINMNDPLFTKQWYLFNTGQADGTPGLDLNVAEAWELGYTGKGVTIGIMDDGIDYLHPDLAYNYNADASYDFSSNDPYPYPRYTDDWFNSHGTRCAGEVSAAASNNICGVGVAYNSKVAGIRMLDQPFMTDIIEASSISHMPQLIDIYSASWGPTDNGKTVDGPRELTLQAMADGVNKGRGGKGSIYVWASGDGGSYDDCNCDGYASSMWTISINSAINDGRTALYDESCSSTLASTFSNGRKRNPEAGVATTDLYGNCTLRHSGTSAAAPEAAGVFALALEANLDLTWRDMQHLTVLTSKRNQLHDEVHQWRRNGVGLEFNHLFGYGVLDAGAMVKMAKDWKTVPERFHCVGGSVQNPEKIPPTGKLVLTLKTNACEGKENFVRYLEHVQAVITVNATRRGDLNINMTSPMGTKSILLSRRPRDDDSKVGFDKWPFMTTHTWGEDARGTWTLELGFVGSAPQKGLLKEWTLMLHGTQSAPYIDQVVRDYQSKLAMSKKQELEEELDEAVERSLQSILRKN

Which Ki does the source give for Ac-MRKRRR-NH2 (peptide) here?
Its Ki is 1500 µM.
